According to US6685932 (EUROPAISCHES LABORATORIUM MOLEKULARBIOLOGIE, dated 2004):
Where two headings read alike, the source gives them in different places.

Assays:
[1] = target: T1, extracellular domain of the IL-4Rα (IL-4 binding protein) (UniProt P24394 26-232, limits assumed, biotinylated at Cys-206); experiment: biosensor (BIA2000), IL4BP biotinylated at Cys-206 on a streptavidin matrix, 25 C
T1 construct: extracellular domain; Immobilised on the streptavidin-coated matrix of the biosensor through biotin at Cys-206; also called IL4BP; IL-4 specific receptor
T1 sequence (looked up): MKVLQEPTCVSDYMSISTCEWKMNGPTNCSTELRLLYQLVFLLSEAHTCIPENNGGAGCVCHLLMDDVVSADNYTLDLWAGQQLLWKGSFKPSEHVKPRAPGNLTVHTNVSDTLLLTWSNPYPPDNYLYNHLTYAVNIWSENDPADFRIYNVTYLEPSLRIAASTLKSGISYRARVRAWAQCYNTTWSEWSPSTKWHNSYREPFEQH

[2] = target: T1, extracellular domain of the IL-4Rα …; experiment: as above; remark: listed apart in the source
[3] = target: T1, extracellular domain of the IL-4Rα …; experiment: biosensor (BIA2000), IL4BP immobilised on a streptavidin matrix, room temperature

B1: Model 2 (peptide)
peptide: Ac-RMKQLEDKVERLLSRNYRLENEVARLKKLVG-NH2
modifications: not fully specified
notes: Synthetic peptide derived from the GCN4 leucine zipper, designed to form a non-covalent parallel coiled-coil dimer
[1]
  Kd: 4.08 mM
[2]
  Kd: 4.08 mM

B2: Model 1 (peptide)
peptide: Ac-RMKQLEDKVEELLSKNYRLENRVARLEKLVG-NH2
modifications: also: designed to form non-covalent parallel coiled-coil dimer
notes: as for B1
[3]
  binding result: no binding
